Substrate in this data set: CC(=O)CC(=O)SCCNC(=O)CCNC(=O)[C@H](O)C(C)(C)COP(=O)(O)OP(=O)(O)OC[C@H]1O[C@@H](n2cnc3c(N)ncnc32)[C@H](O)[C@@H]1OP(=O)(O)O
Briefly: initial rate versus acetoacetyl-CoA concentration, Michaelis-Menten fit. The class given is biochemical, Ginkgo biloba. The conditions noted are these: acetoacetyl-CoA varied 20-100 μM (Km lies far above the range); pH, temperature and acetyl-CoA concentration not given. The source says: initial rate versus acetoacetyl-CoA concentration, Michaelis-Menten fit on GbHMGS1

B1: GbHMGS1 (Ginkgo biloba) (protein)
chain: MASHPENVGILAMDIYFPSTCVQQDALETFDGVSKGKYTIGLGQDCMAFCMDLEDVISMSLTVVSSLLDKYGIDPKRIGRLEVGSETVIDKSKSIKTWLMQIFEECGNSEIEGVDSTNACYGGTAALLNCVNWVESRSWDGRYGLVVSTDSAVYAEGPARPTGGAAAVAMLIGPNAPIVFESKYRGTHMSHAYDFYKPNLASEYPVVDGKLSQTCYLMGLDSCYKRFCNRFEEGEGRQFSLSDADYVAFHSPYNKLVQKSFARLLFNDFSRHASSVGKDAQEKLEPYAGLSDEDSYSSRELEKVSQQVARPLYDVKVQPSTLLPKQVGNMYTASLYAAFASIIHNEHDTLEGQRVLMFSYGSGLASTMFSLKIREGQHPFTLTNIADVMDVSSKLDSRHVLSPEDFMVNMKLMETLYGAKDFISCSDHNLLRSGTFYLTQVDSMYRRFYAQKVASPDDTHEKVKLANGIIHDQL
In general, Km refers to the concentration of substrate that gives half-maximal velocity. What is called Vmax is the top rate of the reaction or transport when substrate is in excess. In general, kcat refers to the maximal rate divided by the concentration of active sites. As usually defined, the kcat/Km is the second-order rate constant that governs catalysis at low substrate concentration. In the case of B1, the Km amounted to 689 ± 32.6 µM, the Vmax amounted to 0.0371 µM/min, the kcat amounted to 3.26 ± 0.218 s⁻¹ and the kcat/Km was determined as 4670 ± 167 M⁻¹ s⁻¹.

The record behind these values is paper PMC6151752, “Characterization, Function, and Transcriptional Profiling Analysis of 3-Hydroxy-3-methylglutaryl-CoA Synthase Gene (GbHMGS1) towards Stresses and Exogenous Hormone Treatments in Ginkgo biloba” (Molecules : A Journal of Synthetic Chemistry and Natural …, 2017).
